Experimental data reported in patent US20130005646A1 (Novo Nordisk, published 2013).
Starred links: 1 amine or outer side, 2 acyl side, 3 side chain; linkers in the order of their positions; H or OH if unused. Positions of bridges follow the written chain, without caps; N, C: chain ends. Groups on a side chain read outwards from the residue. No end group written: not given here. *: point of attachment. X1 = (S)‑4‑Carboxy‑4‑(19-carboxynonadecanoylamino)butyryl, O=C(O)CCCCCCCCCCCCCCCCCCC(=O)N[C@@H](CCC(=O)*)C(=O)O; C20 diacid = O=C(O)CCCCCCCCCCCCCCCCCCC(=O)*; γGlu = O=C(O)[C@H](CCC(=O)[*:2])N[*:1]; AEEA = NCCOCCOCC(=O)O

What was measured:
[1] = target: T1, human calcitonin (a) receptor (human, UniProt P30988 25-474); assay: cell-based or functional assay
T1 sequence (looked up): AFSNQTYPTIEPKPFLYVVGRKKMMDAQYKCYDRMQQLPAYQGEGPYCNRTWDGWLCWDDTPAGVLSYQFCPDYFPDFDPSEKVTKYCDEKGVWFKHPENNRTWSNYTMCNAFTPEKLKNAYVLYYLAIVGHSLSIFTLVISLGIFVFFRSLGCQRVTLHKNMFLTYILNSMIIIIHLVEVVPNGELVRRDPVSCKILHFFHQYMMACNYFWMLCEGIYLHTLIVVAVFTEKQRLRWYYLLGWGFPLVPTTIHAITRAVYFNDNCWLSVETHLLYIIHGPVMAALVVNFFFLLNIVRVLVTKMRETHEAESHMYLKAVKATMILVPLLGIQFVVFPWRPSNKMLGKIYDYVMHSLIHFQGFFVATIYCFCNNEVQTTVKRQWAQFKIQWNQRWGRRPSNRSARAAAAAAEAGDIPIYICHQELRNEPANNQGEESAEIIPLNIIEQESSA

[2] = target: T2, human amylin 3(a) receptor (human calcitonin receptor + RAMP-3) (human, UniProt P30988 25-474; O60896 24-148); assay: cell-based or functional assay
T2 sequence (looked up) 1: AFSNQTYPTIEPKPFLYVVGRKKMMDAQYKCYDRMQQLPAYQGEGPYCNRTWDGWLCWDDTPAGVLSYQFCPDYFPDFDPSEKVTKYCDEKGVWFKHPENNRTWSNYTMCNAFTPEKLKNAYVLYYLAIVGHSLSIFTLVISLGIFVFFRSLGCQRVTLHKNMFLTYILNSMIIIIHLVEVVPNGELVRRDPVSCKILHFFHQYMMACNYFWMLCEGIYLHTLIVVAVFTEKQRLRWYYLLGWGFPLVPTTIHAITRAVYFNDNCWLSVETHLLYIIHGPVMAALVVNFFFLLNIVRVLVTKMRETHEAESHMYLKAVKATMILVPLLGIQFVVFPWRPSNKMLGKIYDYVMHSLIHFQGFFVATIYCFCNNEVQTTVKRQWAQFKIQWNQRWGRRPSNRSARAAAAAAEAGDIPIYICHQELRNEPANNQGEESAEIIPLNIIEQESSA
T2 sequence (looked up) 2: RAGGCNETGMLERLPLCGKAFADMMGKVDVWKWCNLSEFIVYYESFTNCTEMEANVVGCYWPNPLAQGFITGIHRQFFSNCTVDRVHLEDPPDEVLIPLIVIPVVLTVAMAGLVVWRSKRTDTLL

Binder	CTa receptor human EC50 [1]	Amylin receptor human EC50 [2]
{C20 diacid-γGlu}-ECNTATCATQRLAEFLHRSSNNFGPILPPTNVGSNTY-NH2 (disulfide 2-7; SMILES CC[C@H](C)[C@H](NC(=O)[C@@H]1CCCN1C(=O)CNC(=O)[C@H](Cc1ccccc1)NC(=O)[C@H](CC(N)=O)NC(=O)[C@H](CC(N)=O)NC(=O)[C@H](CO)NC(=O)[C@H](CO)NC(=O)[C@H](CCCNC(=N)N)NC(=O)[C@H](Cc1c[nH]cn1)NC(=O)[C@H](CC(C)C)NC(=O)[C@H](Cc1ccccc1)NC(=O)[C@H](CCC(=O)O)NC(=O)[C@H](C)NC(=O)[C@H](CC(C)C)NC(=O)[C@H](CCCNC(=N)N)NC(=O)[C@H](CCC(N)=O)NC(=O)[C@@H](NC(=O)[C@H](C)NC(=O)[C@@H]1CSSC[C@H](NC(=O)[C@H](CCC(=O)O)NC(=O)CC[C@H](NC(=O)CCCCCCCCCCCCCCCCCCC(=O)O)C(=O)O)C(=O)N[C@@H](CC(N)=O)C(=O)N[C@@H]([C@@H](C)O)C(=O)N[C@@H](C)C(=O)N[C@@H]([C@@H](C)O)C(=O)N1)[C@@H](C)O)C(=O)N[C@@H](CC(C)C)C(=O)N1CCC[C@H]1C(=O)N1CCC[C@H]1C(=O)N[C@H](C(=O)N[C@@H](CC(N)=O)C(=O)N[C@H](C(=O)NCC(=O)N[C@@H](CO)C(=O)N[C@@H](CC(N)=O)C(=O)N[C@H](C(=O)N[C@@H](Cc1ccc(O)cc1)C(N)=O)[C@@H](C)O)C(C)C)[C@@H](C)O) [N-alpha-[(S)-4-Carboxy-4-(19-carboxynonadecanoylamino)butyryl]-[Glu1,Glu14,His17,Arg18]-pramlintide]	1.65 nM	0.353 nM
X1-HCNTATCATQRLAEFLVRSSNNFGPILPPTNVGSNTY-NH2 (disulfide 2-7; SMILES CC[C@H](C)[C@H](NC(=O)[C@@H]1CCCN1C(=O)CNC(=O)[C@H](Cc1ccccc1)NC(=O)[C@H](CC(N)=O)NC(=O)[C@H](CC(N)=O)NC(=O)[C@H](CO)NC(=O)[C@H](CO)NC(=O)[C@H](CCCNC(=N)N)NC(=O)[C@@H](NC(=O)[C@H](CC(C)C)NC(=O)[C@H](Cc1ccccc1)NC(=O)[C@H](CCC(=O)O)NC(=O)[C@H](C)NC(=O)[C@H](CC(C)C)NC(=O)[C@H](CCCNC(=N)N)NC(=O)[C@H](CCC(N)=O)NC(=O)[C@@H](NC(=O)[C@H](C)NC(=O)[C@@H]1CSSC[C@H](NC(=O)[C@H](Cc2c[nH]cn2)NC(=O)CC[C@H](NC(=O)CCCCCCCCCCCCCCCCCCC(=O)O)C(=O)O)C(=O)N[C@@H](CC(N)=O)C(=O)N[C@@H]([C@@H](C)O)C(=O)N[C@@H](C)C(=O)N[C@@H]([C@@H](C)O)C(=O)N1)[C@@H](C)O)C(C)C)C(=O)N[C@@H](CC(C)C)C(=O)N1CCC[C@H]1C(=O)N1CCC[C@H]1C(=O)N[C@H](C(=O)N[C@@H](CC(N)=O)C(=O)N[C@H](C(=O)NCC(=O)N[C@@H](CO)C(=O)N[C@@H](CC(N)=O)C(=O)N[C@H](C(=O)N[C@@H](Cc1ccc(O)cc1)C(N)=O)[C@@H](C)O)C(C)C)[C@@H](C)O) [N-alpha-[(S)-4-Carboxy-4-(19-carboxynonadecanoylamino)butyryl]-[His1,Glu14,Arg18]-pramlintide]	0.125 nM	0.083 nM
X1-HCNTATCATQRLAEFLHRSSNNFGAPLSSTNVGSNTY-NH2 (disulfide 2-7; SMILES CC(C)C[C@H](NC(=O)[C@H](CCCNC(=N)N)NC(=O)[C@H](CCC(N)=O)NC(=O)[C@@H](NC(=O)[C@H](C)NC(=O)[C@@H]1CSSC[C@H](NC(=O)[C@H](Cc2c[nH]cn2)NC(=O)CC[C@H](NC(=O)CCCCCCCCCCCCCCCCCCC(=O)O)C(=O)O)C(=O)N[C@@H](CC(N)=O)C(=O)N[C@@H]([C@@H](C)O)C(=O)N[C@@H](C)C(=O)N[C@@H]([C@@H](C)O)C(=O)N1)[C@@H](C)O)C(=O)N[C@@H](C)C(=O)N[C@@H](CCC(=O)O)C(=O)N[C@@H](Cc1ccccc1)C(=O)N[C@@H](CC(C)C)C(=O)N[C@@H](Cc1c[nH]cn1)C(=O)N[C@@H](CCCNC(=N)N)C(=O)N[C@@H](CO)C(=O)N[C@@H](CO)C(=O)N[C@@H](CC(N)=O)C(=O)N[C@@H](CC(N)=O)C(=O)N[C@@H](Cc1ccccc1)C(=O)NCC(=O)N[C@@H](C)C(=O)N1CCC[C@H]1C(=O)N[C@@H](CC(C)C)C(=O)N[C@@H](CO)C(=O)N[C@@H](CO)C(=O)N[C@H](C(=O)N[C@@H](CC(N)=O)C(=O)N[C@H](C(=O)NCC(=O)N[C@@H](CO)C(=O)N[C@@H](CC(N)=O)C(=O)N[C@H](C(=O)N[C@@H](Cc1ccc(O)cc1)C(N)=O)[C@@H](C)O)C(C)C)[C@@H](C)O)	0.24 nM	0.115 nM
{C20 diacid-γGlu}-HCNTATCATQRLAEFLHRSSNNFGEILSRTNVGSNTY-NH2 (disulfide 2-7; SMILES CC[C@H](C)[C@H](NC(=O)[C@H](CCC(=O)O)NC(=O)CNC(=O)[C@H](Cc1ccccc1)NC(=O)[C@H](CC(N)=O)NC(=O)[C@H](CC(N)=O)NC(=O)[C@H](CO)NC(=O)[C@H](CO)NC(=O)[C@H](CCCNC(=N)N)NC(=O)[C@H](Cc1c[nH]cn1)NC(=O)[C@H](CC(C)C)NC(=O)[C@H](Cc1ccccc1)NC(=O)[C@H](CCC(=O)O)NC(=O)[C@H](C)NC(=O)[C@H](CC(C)C)NC(=O)[C@H](CCCNC(=N)N)NC(=O)[C@H](CCC(N)=O)NC(=O)[C@@H](NC(=O)[C@H](C)NC(=O)[C@@H]1CSSC[C@H](NC(=O)[C@H](Cc2c[nH]cn2)NC(=O)CC[C@H](NC(=O)CCCCCCCCCCCCCCCCCCC(=O)O)C(=O)O)C(=O)N[C@@H](CC(N)=O)C(=O)N[C@@H]([C@@H](C)O)C(=O)N[C@@H](C)C(=O)N[C@@H]([C@@H](C)O)C(=O)N1)[C@@H](C)O)C(=O)N[C@@H](CC(C)C)C(=O)N[C@@H](CO)C(=O)N[C@@H](CCCNC(=N)N)C(=O)N[C@H](C(=O)N[C@@H](CC(N)=O)C(=O)N[C@H](C(=O)NCC(=O)N[C@@H](CO)C(=O)N[C@@H](CC(N)=O)C(=O)N[C@H](C(=O)N[C@@H](Cc1ccc(O)cc1)C(N)=O)[C@@H](C)O)C(C)C)[C@@H](C)O)	0.131 nM	0.0779 nM
X1-HCNTATCATQRLAEFLHRSSNEFGARLSSTNVGSNTY-NH2 (disulfide 2-7; SMILES CC(C)C[C@H](NC(=O)[C@H](CCCNC(=N)N)NC(=O)[C@H](CCC(N)=O)NC(=O)[C@@H](NC(=O)[C@H](C)NC(=O)[C@@H]1CSSC[C@H](NC(=O)[C@H](Cc2c[nH]cn2)NC(=O)CC[C@H](NC(=O)CCCCCCCCCCCCCCCCCCC(=O)O)C(=O)O)C(=O)N[C@@H](CC(N)=O)C(=O)N[C@@H]([C@@H](C)O)C(=O)N[C@@H](C)C(=O)N[C@@H]([C@@H](C)O)C(=O)N1)[C@@H](C)O)C(=O)N[C@@H](C)C(=O)N[C@@H](CCC(=O)O)C(=O)N[C@@H](Cc1ccccc1)C(=O)N[C@@H](CC(C)C)C(=O)N[C@@H](Cc1c[nH]cn1)C(=O)N[C@@H](CCCNC(=N)N)C(=O)N[C@@H](CO)C(=O)N[C@@H](CO)C(=O)N[C@@H](CC(N)=O)C(=O)N[C@@H](CCC(=O)O)C(=O)N[C@@H](Cc1ccccc1)C(=O)NCC(=O)N[C@@H](C)C(=O)N[C@@H](CCCNC(=N)N)C(=O)N[C@@H](CC(C)C)C(=O)N[C@@H](CO)C(=O)N[C@@H](CO)C(=O)N[C@H](C(=O)N[C@@H](CC(N)=O)C(=O)N[C@H](C(=O)NCC(=O)N[C@@H](CO)C(=O)N[C@@H](CC(N)=O)C(=O)N[C@H](C(=O)N[C@@H](Cc1ccc(O)cc1)C(N)=O)[C@@H](C)O)C(C)C)[C@@H](C)O)	0.279 nM	0.127 nM
RCNTATCATQRLAEFLHRSSK([AEEA-AEEA-γGlu-19‑carboxyheptadecanoyl])NFGPILPPTNVGSNTY-NH2 (disulfide 2-7)	0.469 nM	0.0994 nM
{C20 diacid-γGlu}-CGTATCATQRLAEFLHRSSQQFGPILPPTEVGSGTY-NH2 (disulfide 1-6; SMILES CC[C@H](C)[C@H](NC(=O)[C@@H]1CCCN1C(=O)CNC(=O)[C@H](Cc1ccccc1)NC(=O)[C@H](CCC(N)=O)NC(=O)[C@H](CCC(N)=O)NC(=O)[C@H](CO)NC(=O)[C@H](CO)NC(=O)[C@H](CCCNC(=N)N)NC(=O)[C@H](Cc1c[nH]cn1)NC(=O)[C@H](CC(C)C)NC(=O)[C@H](Cc1ccccc1)NC(=O)[C@H](CCC(=O)O)NC(=O)[C@H](C)NC(=O)[C@H](CC(C)C)NC(=O)[C@H](CCCNC(=N)N)NC(=O)[C@H](CCC(N)=O)NC(=O)[C@@H](NC(=O)[C@H](C)NC(=O)[C@@H]1CSSC[C@H](NC(=O)CC[C@H](NC(=O)CCCCCCCCCCCCCCCCCCC(=O)O)C(=O)O)C(=O)NCC(=O)N[C@@H]([C@@H](C)O)C(=O)N[C@@H](C)C(=O)N[C@@H]([C@@H](C)O)C(=O)N1)[C@@H](C)O)C(=O)N[C@@H](CC(C)C)C(=O)N1CCC[C@H]1C(=O)N1CCC[C@H]1C(=O)N[C@H](C(=O)N[C@@H](CCC(=O)O)C(=O)N[C@H](C(=O)NCC(=O)N[C@@H](CO)C(=O)NCC(=O)N[C@H](C(=O)N[C@@H](Cc1ccc(O)cc1)C(N)=O)[C@@H](C)O)C(C)C)[C@@H](C)O)	0.284 nM	0.253 nM
